Measured values taken from patent US7838288B2, “Modulators of odorant receptors” (Duke University, priority 2004, dated 2010).

Tests used:
Assay type in all cases: cell-based, mouse
Settings in all cases: accessory protein co-transfected in 293T cells
OREG = test: Living-cell staining of cell-surface OREG
Procedure: The proteins encoded by these clones were named REEP1, for Receptor Expression Enhancing Protein 1 and RTP1, for Receptor Transporting Protein 1. Subsequently, RTP2 was found, a close relative of RTP1. […] Next, REEP1, RTP1, and RTP2 were tested to detect a similar effect in promoting cell-surface expression of other ORs. Four different ORs (mouse OREG, mouse olfr62, mouse OR-S46 and rat I7) were expressed in 293T cells with or without REEP1, RTP1, or RTP2. […] Additionally, ORs transfected with REEP and/or RTP generated more immunofluorescent cells and stronger signals in positive cells compared with ORs without REEP and/or RTP (see FIG. 2A). The signal intensity and the number of immunopositive cells varied when using different ORs at each condition. […] Nonetheless, occasional immunopositive cells were observed only when the accessory proteins were co-expressed. The effects of RTP1 or RTP2 were consistently more robust than that of REEP1. […]

MOR203-1 = test: Living-cell staining of cell-surface MOR203-1
Excerpt: After hypothesizing that mammalian ORs require accessory protein(s) for functional cell surface expression, a search was instituted for detecting such molecule(s). Long-SAGE (serial analysis of gene expression) libraries (see, e.g., Saha, S., et al., (2002) Nat Biotechnol 20, 508-512; herein incorporated by reference in its entirety) were constructed from single olfactory neurons as well as neurons from the vomeronasal organ and genes were collected that are expressed by these neurons. To identify candidate genes expressed by the olfactory neurons Digital Differential Display (see, e.g., http://www, followed by, .ncbi.nlm.nih.gov/UniGene/info_ddd.shtml) was also used. Candidate genes were investigated for ORFs that encode membrane associated proteins. Genes were selected with similarities to known chaperones and cloned the cDNAs from olfactory epithelium cDNAs. The mRNA expression of each gene was verified by in situ hybridization. After isolating and subcloning into mammalian expression vectors, each cDNA together with a mouse OR (MOR203-1) tagged with a 20 N-terminal amino acids of rhodopsin (Rho-tag), was transfected into 293T cells. We measured whether these clones had any effect on the cell-surface expression of ORs by staining living cells using antibodies against the Rho-tag (see, e.g., Laird, D. W., and Molday, R. S. (1988) Invest Opthalmol Vis Sci 29, 419-428; herein incorporated by reference in its entirety). When MOR203-1 was transfected alone, antibody staining detected only faint cell-surface expression in less than 1% of the cells. A schematic diagram outlining the screening procedure utilized with the present invention is provided at FIG. 1.
(§1) 293T cells were maintained in minimal essential medium containing 10% fetal bovine serum (M10). Lipofectamine 2000 (Invitrogen) was used for transfection. In live-cell staining, 16 hours after transfection, cells were incubated in M10 containing anti rhodopsin antibody, 4D2 (see, e.g., Laird, D. W., and Molday, R. S. (1988) Invest Opthalmol V is Sci 29, 419-428; herein incorporated by reference in its entirety) and 15 mM NaN3 at 4 degrees C. for 1 hour. After washing, cells were incubated with Cy3-conjugated anti mouse IgG (Jackson Immunologicals), washed and mounted. For FACS analysis, 4D2 and PE-conjugated anti mouse IgG (Jackson Immunologicals) were used to monitor the Rho tagged receptor expression. Anti HA rabbit antibodies (Sigma) and Alexa 488 conjugated anti rabbit IgG (Molecular Probes) was used to stain the HA-β2 adrenergic receptor. To establish the Hana3a cells, 1 ug/ml of puromycin was used for selection. 96 colonies were picked and assayed using luciferase assay using OREG.

olfr62 = test: Living-cell staining of cell-surface olfr62
Procedure: The proteins encoded by these clones were named REEP1, for Receptor Expression Enhancing Protein 1 and RTP1, for Receptor Transporting Protein 1. Subsequently, RTP2 was found, a close relative of RTP1. […] Next, REEP1, RTP1, and RTP2 were tested to detect a similar effect in promoting cell-surface expression of other ORs. Four different ORs (mouse OREG, mouse olfr62, mouse OR-S46 and rat I7) were expressed in 293T cells with or without REEP1, RTP1, or RTP2. […] Additionally, ORs transfected with REEP and/or RTP generated more immunofluorescent cells and stronger signals in positive cells compared with ORs without REEP and/or RTP (see FIG. 2A). The signal intensity and the number of immunopositive cells varied when using different ORs at each condition. […] Nonetheless, occasional immunopositive cells were observed only when the accessory proteins were co-expressed. The effects of RTP1 or RTP2 were consistently more robust than that of REEP1. The enhancement of cell-surface expression was specific for ORs and not for other GPCRs: neither REEP and/or RTP enhanced expression of the β2 adrenergic receptor, mT2R5 (a mouse bitter taste receptor) (see, e.g., Chandrashekar, J., et al. (2000) Cell 100, 703-711; herein incorporated by reference in its entirety), or a V2R pheromone receptor (VR4) (see, e.g., Matsunami, H., and Buck, L. B. (1997) Cell 90, 775-784; herein incorporated by reference in its entirety) (see FIG. 2A and FIG. 3). Finally, enhancement of cell-surface expression of MOR203-1 was not observed when other members of the REEP and RTP families (REEP2 and RTP4) were co-expressed.
as §1

B1: RTP1-A1: RTP1 variant from deleting portions of RTP1-A; murine SEQ ID NO: 46, human SEQ ID NO: 47 (protein, listed as Mus musculus)
chain: MCKSVTTGEWKKVFYEKMEEVKPADSWDFIIDPNLKHNVLAPGWKQYLELHASGRFHCSWCWHTWQSPHVVILFHMYLDKAQRAGSVRMRVFKQLCYECGTARLDESSMLEENIESLVDNLITSLREQCYGERGGHYRIHVASRQDNRRHRGEFCEACQEGIVHWKPSEKLLEEEATTYTFSRAPSPTKPQAETGSGCNFCSIPWCLFWATVLMLIIYLQFSFRTSV
Increased cell-surface staining: cell-surface expression of OREG (OREG) | cell surface expression of MOR203-1 (MOR203-1) | cell-surface expression of olfr62 (olfr62)
